Experimental data: paper PMC11059244

Settings: phosphorylation at S405

Substance	degradation_or_half_life	other	expression_or_secretion
YAP: S405A	decreases	increases	–
YAP: S405D phosphomimetic	–	decreases	–
YAP: ponatinib (MAP3K3 inhibitor)	–	–	decreases
